From article PMC8453653, “Kinetic Characterization of a Putatively Chitin-Active LPMO Reveals a Preference for Soluble Substrates and Absence of Monooxygenase Activity” (ACS Catalysis, 2021) come the findings set out here.

Substrate in the data set: O=C1O[C@H]([C@@H](O)CO)C(O)=C1O
The data set can be described thus: initial rates of oxidized product formation by HPAEC-PAD, Michaelis-Menten fit. In kind it is biochemical, Aspergillus fumigatus. Particulars: reductant (apparent half-saturating concentration), 1 μM LPMO, 1 mM H2O2, 2 mM (GlcNAc)4, aerobic, 50 mM bis-tris/HCl pH 6.5, 37 °C. An excerpt: initial rates of oxidized product formation by HPAEC-PAD, Michaelis-Menten fit on AfAA11B

As a reminder, the Km is the substrate concentration at which the rate is half of its maximum.

B1: AfAA11B (Aspergillus fumigatus Af293) (protein)
chain: HMKMRQPTPYSDSSLNNSPLAADGSDFPCKLRDNAFVPPSQETIAQIGEVMPLTFTGSATHGGGSCQVSLTTDLKPSKDSKWMVIKSIEGGCPANVDGNMSGGADVPDPFEFNYTIPAGIEPGKYTLAWTWFNRIGNREMYMNCAPITVTAGSSKRDAAPVAEKVEVEKRSANFPAMFVANINGCTTKEGVDIRFPDPGDVVEYDGNPSNLQPAGEAACSGTPAWTVSGGSGSPSTPSTSSSTPAGTSAGVSVSVGATVGATPTAEPESSSSEPAESEGAPGVFAPTSATVFPSTPTASAAPTSSSSGAGSESDSSSSSNGALTGPCSTEGLWNCIDGSSFQRCANGQWTTAQQMAAGTECTVGQNAQFTISATAVKPRMINAMRHRKRAHGGHRHA
notes: gene 1257 bp; expressed in Pichia pastoris (PichiaPink Strain 4), no tag mentioned; copper-saturated
Consider B1, for which the Michaelis constant (Km) was 502 ± 35 µM and the kcat is recorded as 3.9 ± 0.2 s^–1.
